{"source": "patent US20250197490A1", "about": "(HBM ALPHA THERAPEUTICS, published 2025)", "binders": {"B1": {"name": "PR005656 (antibody, human IgG1, kappa, V domains shown)", "VH": "EVQLVESGGVLVQPGGSLRLSCAASGFTFSSYWMTWVRQAPGKGLEWVANIKQEGSEKYYVDSVKGRFTISRDNAKNSLFLQMNSLRAEDTAVYYCARTLIFDYWGQGTLVTVSS", "VL": "DIVMTQSPLSLPVTPGEPASISCRSSQSLLHSTGYNSLEWYLQKPGQSPQLLIYLGSNRASGVPDRFSGSGSGTDFTLKISRVEAEDVGIYYCMQTLQTPITFGQGTRLEIKR"}, "B2": {"name": "PR006745 (antibody, human IgG1, kappa, V domains shown)", "VH": "EVQLVESGGGLVQPGGSLRLSCAASGFTFSDNWMSWVRQAPGKGLEWVANIKQDASENYYVDSVKGRFTISRDNAKNSLYLQMNSLRAEDTAVYYCSRGLALWGWGQGTLVTVSS", "VL": "B1 VL with Q6H, E17D, S37Y, E39D, I80F, S81I, I90V, T96A, I101Y, R108K"}, "B3": {"name": "PR006145 (antibody, human IgG1, kappa, V domains shown)", "VH": "B1 VH", "VL": "B1 VL with N36S"}, "B4": {"name": "PR006143 (antibody, human IgG1, kappa, V domains shown)", "VH": "B1 VH", "VL": "B1 VL with N36H"}, "B5": {"name": "PR006746 (antibody, human IgG1, kappa, V domains shown)", "VH": "B2 VH with A55S", "VL": "B1 VL with Q6H, E17D, S37Y, E39D, I80F, S81I, I90V, T96A, I101Y, R108K"}, "B6": {"name": "PR301612 (antibody, human IgG1, kappa, V domains shown)", "VH": "EVKLEESGGGLVQPGGSIKLSCVASGFTFSGAWMAWVRQSPEKGLEWVAEIKNKANNHATFYAESVKGRFIISRDDSKSSVYLQMNSLRAEDTGTYYCTLPDVWGTGTTVTVSS", "VL": "QIVLTQSPAIMSASPGERVTISCSASSSVSNMYWYLQKPGSSPKPWIYRTSNLASGVPARFSGSGSGTSYSLTISSMEAEDVATYYCQQYHSFPRTFGGGTKLEIKR"}, "B7": {"name": "PR302334 (antibody, human IgG1, kappa, V domains shown)", "VH": "EVKLVESGGGLVKPGGSLKLSCAASGFTFSTYAMSWVRQTPEKRLEWVASIRSGGTTYYPDSVKGRFTISRDNARNILYLQMSSLRSEDTAIYYCTRGIDWGQGTLVTVSA", "VL": "NIVMTQTPKFLLVSAGDRITITCKASQSVNNDVAWYQQKPGQSPKLLIYYASNRYTGVPDRFTGSGYGTDFTFTISTVQAEDLAVYFCQQDYSSWTFGGGTNLEIKR"}, "B8": {"name": "PR301806 (antibody, human IgG1, kappa, V domains shown)", "VH": "QVQLQQPGAELVKPGTSVKMSCKASGYTFTSYWMHWVKQRPGQGLEWIGDIYPGSDSTNYNEKFKSKASLTVDTSSSTAYMQLSSLTSEDSAVYYCARSITTTTFWYFDVWGAGTTVTVSS", "VL": "DVLMTQTPLSLPVSLGDQASISCRSSQSFVYSNGNTYLQWYLQKPGQSPKLLIYKVSNRFSGVPDRFSGSGSGTDFTLKISRVEAEDLGVYYCFQGSHVPPTFGAGTKLELKR"}, "B9": {"name": "PR301788 (antibody, human IgG1, kappa, V domains shown)", "VH": "EMKLEESGGGLVQPGGSMKLSCVASGFTFSNYWMNWVRQSPEKGLEWVAEIRLKSNNYATHYAESVKGRFTISRDDSKSSVYLQMNNLRAEDTGIYYCTIGTLVYWGQGTLVTVSA", "VL": "DIVLTQSPASLAVSLGQRATISCRASQSVSTSTYNYMHWFQQKPGQPPKLLIKFASNLESGVPARFSGSGSGTDFTLNIHPVEEEDTATFYCQHSWEIPYTFGGGTKLEIKR"}, "B10": {"name": "PR301306 (antibody, human IgG1, kappa, V domains shown)", "VH": "B9 VH with M2V, H61L, I100R", "VL": "B9 VL with T33D, F40Y, F54Y, F90Y"}}, "key": {"biotinylated CRH [1]": {"target": "T1, biotinylated CRH (human and mouse, UniProt P01143 145-185 (rat entry), not fully specified; biotin; which end is not stated for the result (NT-biotin and CT-biotin forms were used))", "T1 construct": "also called biotin-CRH; CRH (NT biotin)", "T1 peptide": "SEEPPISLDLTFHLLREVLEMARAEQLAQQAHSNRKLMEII", "assay": "ELISA, CRH (NT biotin)"}, "[2]": {"target": "T2, corticotropin-releasing hormone (CRH) peptide (human and mouse, UniProt P01143 145-185 (rat entry), not fully specified)", "T2 peptide": "T1 peptide", "assay": "cell-based or functional assay"}, "biotinylated CRH [3]": {"target": "T1, biotinylated CRH", "assay": "CRH ELISA, compared with PR006669", "experimental": "Streptavidin (Thermo, Cat: 21125) was diluted in PBS to a concentration of 2 μg/ml. 100 μl of diluted streptavidin was added per well to ELISA microplates, and the plates were incubated overnight at 4° C. […] Subsequently, plates were washed and incubated with HRP-conjugated goat anti-human IgG (H+L) antibody (Jackson, Cat: 109-035-088) at 37° C. for 1 hour. 100 μL of 3,3′,5,5′-tetramethylbenzidine (TMB) substrate (Biopanda, Cat: TMB-S-003) was added, and the plates were incubated at room temperature for 15 minutes. 100 μL of ELISA stopping solution (Solarbio, Cat #: C1058) was added to terminate the reaction, and the optical density at 450 nm (OD450 nm) was determined by an ELISA plate reader (Molecular Devices, Spectra max 384 plus)."}, "biotinylated CRH [4]": {"target": "T1, biotinylated CRH", "assay": "Octet BLI, biotinylated CRH on SA sensors"}, "biotinylated CRH [5]": {"target": "T1, biotinylated CRH", "assay": "ELISA, CRH (CT biotin)"}, "[6]": {"target": "T2, corticotropin-releasing hormone (CRH) …", "assay": "cell-based or functional assay"}, "biotinylated CRH [7]": {"target": "T1, biotinylated CRH", "assay": "Octet in-tandem competition on captured CRH; row = 1st mAb; competitor (2nd mAb) PR005660", "experimental": "(§1) SA sensors (Fortebio, Cat #18-5019) were hydrated in running buffer for 10 mins."}, "biotinylated CRH [8]": {"target": "T1, biotinylated CRH", "assay": "Octet in-tandem competition on captured CRH; row = 1st mAb; competitor (2nd mAb) PR006669", "experimental": "as §1"}, "biotinylated CRH [9]": {"target": "T1, biotinylated CRH", "assay": "Octet in-tandem competition on captured CRH; row = 1st mAb; competitor (2nd mAb) PR301777", "experimental": "as §1"}, "biotinylated CRH [10]": {"target": "T1, biotinylated CRH", "assay": "Octet in-tandem competition on captured CRH; row = 1st mAb; competitor (2nd mAb) PR302334", "experimental": "as §1"}, "biotinylated CRH [11]": {"target": "T1, biotinylated CRH", "assay": "Octet in-tandem competition on captured CRH; row = 1st mAb; competitor (2nd mAb) PR303394", "experimental": "as §1"}, "biotinylated CRH [12]": {"target": "T1, biotinylated CRH", "assay": "Octet in-tandem competition on captured CRH; row = 1st mAb; competitor (2nd mAb) PR302309-8", "experimental": "as §1"}, "biotinylated CRH [13]": {"target": "T1, biotinylated CRH", "assay": "Octet in-tandem competition on captured CRH; row = 1st mAb; competitor (2nd mAb) PR302341-34", "experimental": "as §1"}, "biotinylated CRH [14]": {"target": "T1, biotinylated CRH", "assay": "ELISA, CRH (NT biotin)"}, "biotinylated CRH [15]": {"target": "T1, biotinylated CRH", "assay": "ELISA, CRH (NT biotin)"}, "biotinylated CRH [16]": {"target": "T1, biotinylated CRH", "assay": "ELISA, CRH (CT biotin)"}}, "note": "Substitutions are numbered along the chain they refer to. Values joined by “and” are separate entries in the source; they are usually repeats but may differ in a detail not shown here. Identical values can stand only once."}
{"binder": "B1", "values": [{"measurement": "EC50 (read off the curve)", "setting": "biotinylated CRH [1]", "value": "~30", "unit": "pM"}, {"measurement": "IC50 (read off the curve), CRH-induced mCRHR1 luciferase reporter", "setting": "[2]", "value": "~4000", "unit": "pM"}]}
{"binder": "B2", "values": [{"measurement": "binding result", "setting": "biotinylated CRH [3]", "value": "binds"}]}
{"binder": "B3", "values": [{"measurement": "binding result", "setting": "biotinylated CRH [4]", "value": "binds"}]}
{"binder": "B4", "values": [{"measurement": "binding result", "setting": "biotinylated CRH [4]", "value": "binds"}]}
{"binder": "B5", "values": [{"measurement": "binding result", "setting": "biotinylated CRH [3]", "value": "binds"}]}
{"binder": "B6", "values": [{"measurement": "EC50 (read off the curve)", "setting": "biotinylated CRH [5]", "value": "~30", "unit": "pM"}]}
{"binder": "B7", "values": [{"measurement": "hCRHR1-Luc 0.5 nM CRH IC50", "setting": "[6]", "value": "260 pM and 644 pM"}, {"measurement": "% Inhibition", "setting": "biotinylated CRH [7]", "value": 92, "unit": "%"}, {"measurement": "% Inhibition", "setting": "biotinylated CRH [8]", "value": 93, "unit": "%"}, {"measurement": "% Inhibition", "setting": "biotinylated CRH [9]", "value": 90, "unit": "%"}, {"measurement": "% Inhibition", "setting": "biotinylated CRH [10]", "value": 95, "unit": "%"}, {"measurement": "% Inhibition", "setting": "biotinylated CRH [11]", "value": 89, "unit": "%"}, {"measurement": "% Inhibition", "setting": "biotinylated CRH [12]", "value": 91, "unit": "%"}, {"measurement": "% Inhibition", "setting": "biotinylated CRH [13]", "value": 88, "unit": "%"}]}
{"binder": "B8", "values": [{"measurement": "binding result", "setting": "biotinylated CRH [14]", "value": "binds"}]}
{"binder": "B9", "values": [{"measurement": "binding result", "setting": "biotinylated CRH [14]", "value": "binds"}]}
{"binder": "B10", "values": [{"measurement": "EC50 (read off the curve)", "setting": "biotinylated CRH [15]", "value": "~100", "unit": "pM"}, {"measurement": "EC50 (read off the curve)", "setting": "biotinylated CRH [16]", "value": "~40", "unit": "pM"}]}
